The text below walks through data of EP3344659B1 (Immunwork Inc., dated 2025).

In this assay the target is T1, human fibrinogen (human, UniProt P02671 20-629; P02675 31-491; P02679 27-437, limits assumed).
T1 construct: Bought from Sigma and coated on 96-well plates; also called fibrinogen plate
T1 sequence (looked up) 1: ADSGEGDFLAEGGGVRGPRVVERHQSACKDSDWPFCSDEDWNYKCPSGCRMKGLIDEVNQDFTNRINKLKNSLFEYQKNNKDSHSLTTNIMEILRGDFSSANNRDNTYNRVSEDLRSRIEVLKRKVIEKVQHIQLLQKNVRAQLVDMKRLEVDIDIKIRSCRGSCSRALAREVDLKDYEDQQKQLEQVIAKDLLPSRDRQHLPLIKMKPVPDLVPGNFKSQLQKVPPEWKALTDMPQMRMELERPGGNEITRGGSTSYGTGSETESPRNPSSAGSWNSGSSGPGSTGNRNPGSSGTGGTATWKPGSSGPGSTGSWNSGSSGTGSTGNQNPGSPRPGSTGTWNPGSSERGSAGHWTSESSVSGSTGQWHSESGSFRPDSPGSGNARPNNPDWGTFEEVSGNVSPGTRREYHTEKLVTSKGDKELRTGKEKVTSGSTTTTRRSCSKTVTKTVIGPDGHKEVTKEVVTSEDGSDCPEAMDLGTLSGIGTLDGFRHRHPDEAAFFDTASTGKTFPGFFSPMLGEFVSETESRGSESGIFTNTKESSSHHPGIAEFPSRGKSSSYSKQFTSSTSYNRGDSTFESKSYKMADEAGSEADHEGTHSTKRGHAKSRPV
T1 sequence (looked up) 2: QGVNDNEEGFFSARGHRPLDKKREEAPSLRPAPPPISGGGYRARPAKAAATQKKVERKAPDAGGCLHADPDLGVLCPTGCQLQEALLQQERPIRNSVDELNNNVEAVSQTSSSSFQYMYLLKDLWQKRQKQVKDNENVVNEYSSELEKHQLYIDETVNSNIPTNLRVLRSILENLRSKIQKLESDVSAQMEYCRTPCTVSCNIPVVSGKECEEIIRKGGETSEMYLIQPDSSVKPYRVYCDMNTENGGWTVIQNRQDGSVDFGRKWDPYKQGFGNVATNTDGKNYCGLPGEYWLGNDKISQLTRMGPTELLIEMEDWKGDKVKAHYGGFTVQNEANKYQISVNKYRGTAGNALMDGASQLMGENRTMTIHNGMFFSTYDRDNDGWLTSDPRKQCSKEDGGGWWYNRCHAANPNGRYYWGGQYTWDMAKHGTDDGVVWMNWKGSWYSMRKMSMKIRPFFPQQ
T1 sequence (looked up) 3: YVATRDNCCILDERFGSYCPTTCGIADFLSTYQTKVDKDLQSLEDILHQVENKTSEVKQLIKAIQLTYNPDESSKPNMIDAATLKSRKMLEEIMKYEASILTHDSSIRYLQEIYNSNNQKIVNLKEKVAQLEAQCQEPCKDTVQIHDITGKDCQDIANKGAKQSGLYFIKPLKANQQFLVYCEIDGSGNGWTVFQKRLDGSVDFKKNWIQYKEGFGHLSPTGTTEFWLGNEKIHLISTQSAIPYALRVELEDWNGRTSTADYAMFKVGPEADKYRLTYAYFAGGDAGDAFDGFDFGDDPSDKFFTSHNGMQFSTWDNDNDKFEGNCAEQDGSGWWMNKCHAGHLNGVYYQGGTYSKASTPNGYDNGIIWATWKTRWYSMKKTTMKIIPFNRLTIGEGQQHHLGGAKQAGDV
As to the kind of experiment: ELISA on fibrinogen-coated plate (1 µg/well). In general terms: An ELISA detects its analyte on a solid surface through an enzyme-linked reagent.

B1: 102-10 scFv specific for human fibrin (scFv)
scFv: DIQMTQSPSSLSASLGGKVTITCKASQDINKYIAWFQHKPGKGPRLLIHYTSTLQPGIPSRFSGSGSGRDYSFSISNLEPEDLATYYCLQYDNLTWTFGGGTKLEIKRGSTSGSGKPGSGEGSTKGQIQLVQSGPELKKPGETVKISCKASGYTFTNYGMNWVKQAPGKGLKWMGWINTYTGEATYADDFKGRFAFSLETSANTAYVQINNLKNEDTATYFCARLMDYWGQGTSVTVSSGGGGSGGGGSC
Take B1: the binding result is given as “no binding”.
